Test results: patent US20210309702A1

Biological target: signal regulatory protein a (SIRPa) (mouse) (UniProt P97797)
Assay: cell-based or functional assay

Chain of UniProt P97797 (P97797 32-513): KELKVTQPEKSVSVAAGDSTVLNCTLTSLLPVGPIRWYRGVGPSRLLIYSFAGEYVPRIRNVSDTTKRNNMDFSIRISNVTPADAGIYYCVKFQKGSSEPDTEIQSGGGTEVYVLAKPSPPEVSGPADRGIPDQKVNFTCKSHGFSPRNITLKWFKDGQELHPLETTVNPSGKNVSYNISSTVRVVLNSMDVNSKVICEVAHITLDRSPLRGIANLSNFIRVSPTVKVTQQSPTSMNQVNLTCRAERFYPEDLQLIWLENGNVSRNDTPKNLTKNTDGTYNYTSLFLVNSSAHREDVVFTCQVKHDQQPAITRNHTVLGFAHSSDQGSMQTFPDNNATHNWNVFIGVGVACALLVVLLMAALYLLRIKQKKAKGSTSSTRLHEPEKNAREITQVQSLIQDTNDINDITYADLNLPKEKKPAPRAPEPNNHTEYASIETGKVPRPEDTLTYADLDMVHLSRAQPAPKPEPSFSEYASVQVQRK

Q: With “Myc and GFP11-tagged mouse CD47 (CD47-Myc-GFP11) (from UniProt Q61735 19-303)” as the substance, how does the Gectosomes depleted by RAW 264.7 macrophages after 3 h (BlaM activity remaining in the media) read?
A: 10 % depleted

Q: And the Gectosomes depleted by RAW 264.7 macrophages after 6 h (BlaM activity remaining in the media)?
A: 50 % depleted
